# Test results from patent US20140271651A1 (AbbVie / Abbott, published 2014).
# T1: E. coli expressed human GP73 (amino acids 63 to 400) with C-terminal 6xHis tag (human, UniProt Q8NBJ4 64-401)
# T1 construct: No human Fc, not glycosylated; also called GP73 produced in E. coli; E. coli GP73
# T1 sequence: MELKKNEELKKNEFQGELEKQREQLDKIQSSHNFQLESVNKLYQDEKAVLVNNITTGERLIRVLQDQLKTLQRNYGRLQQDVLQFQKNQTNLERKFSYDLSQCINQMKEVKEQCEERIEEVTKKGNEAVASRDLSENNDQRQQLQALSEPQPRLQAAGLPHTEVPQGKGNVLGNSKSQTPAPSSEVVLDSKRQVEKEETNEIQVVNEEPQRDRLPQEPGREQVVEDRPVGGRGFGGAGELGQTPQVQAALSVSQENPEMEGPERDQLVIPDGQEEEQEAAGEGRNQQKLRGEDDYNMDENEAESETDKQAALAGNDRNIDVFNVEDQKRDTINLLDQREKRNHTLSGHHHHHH
# T2: GP73-hFc (human GP73 amino acids 63 to 400 fused at the C-terminus to human IgG1 Fc) (human)
# T2 construct: Expressed in HEK293F, CHO or HepG2 cells; the host is named under assay; also called HEK expressed GP73-hFc; CHO expressed GP73-hFc
# T2 chain: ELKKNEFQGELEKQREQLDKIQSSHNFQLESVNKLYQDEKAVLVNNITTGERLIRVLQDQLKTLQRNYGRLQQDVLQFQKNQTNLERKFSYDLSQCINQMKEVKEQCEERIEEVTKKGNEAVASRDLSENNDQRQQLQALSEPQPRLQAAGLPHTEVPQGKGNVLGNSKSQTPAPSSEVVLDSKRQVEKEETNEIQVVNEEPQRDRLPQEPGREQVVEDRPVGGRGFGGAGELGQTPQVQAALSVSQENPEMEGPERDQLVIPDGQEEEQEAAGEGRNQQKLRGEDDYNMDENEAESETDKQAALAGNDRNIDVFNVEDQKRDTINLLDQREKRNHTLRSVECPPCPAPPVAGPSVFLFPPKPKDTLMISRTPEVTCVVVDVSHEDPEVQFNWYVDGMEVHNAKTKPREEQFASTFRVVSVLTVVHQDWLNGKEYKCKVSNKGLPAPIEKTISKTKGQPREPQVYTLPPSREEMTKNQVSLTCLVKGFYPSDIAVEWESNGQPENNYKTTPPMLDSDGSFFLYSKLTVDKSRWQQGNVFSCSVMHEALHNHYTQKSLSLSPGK
# Legend:
# [1] = target: T1, E. coli expressed human GP73 (amino …); assay: Western blot on E. coli expressed GP73 antigen
# Experimental: The mammalian cell (HEK and CHO) expressed GP73-hFc or E. coli expressed GP73, as described above, were electrophoresed in a 4-20% SDS-PAGE gel. […] The nitrocellulose membrane was blocked with PBS buffer containing 5% non-fat dry milk and 0.05% Tween 20 for about 1 hr. The nitrocellulose membrane was incubated with an appropriate amount of anti-GP73 monoclonal antibody in 10 mL of 2.5% non-fat dry milk and 0.05% Tween 20 PBS buffer, pH 7.2. The nitrocellulose membranes were washed with 0.05% Tween 20/PBS, pH 7.2, incubated with goat anti-mouse IgG antibody conjugated with HRP for 1 hr at room temperature, and washed with 0.05% Tween 20/PBS buffer. Antibody bound to the GP73 protein was visualized by the addition of freshly prepared metal enhanced 3,3′-Diaminobenzidine in stable peroxide buffer (Pierce, Ill.).
# [2] = target: T2, GP73-hFc (human GP73 amino acids 63 to …); assay: EIA, supernatant mAb captured on sheep anti-mouse IgG Fc, GP73-hFc 200 ng/mL, biotin goat anti-GP73/streptavidin-HRPO; background 0.06
# Experimental: Cell supernatant samples were analyzed for anti-GP73 antibodies by EIA. Sheep anti-mouse IgG Fc (Jackson Immunoresearch) was coated on 96 well micro-titer EIA plates at 1 μg/mL. After the capture reagent was coated on the solid phase, it was removed and the plates were blocked using a BSA/PBS block solution. The wells were washed with distilled water and cell supernatants were added to the blocked plates and allowed to incubate at room temperature for at least one hour. A mouse monoclonal antibody 14H4-23 (Drexel University) was used a positive control. The anti-mouse IgG Fc captured the anti-GP73 mouse antibody from the supernatant. Following the incubation, the supernatants were washed off using distilled water. An irrelevant mouse-human chimeric antibody was added to all wells and incubated at room temperature for 30 min to block any captured mouse antibodies that react with the human IgG Fc fusion protein linked to the GP73 antigen. The wells were washed with distilled water and GP73-hFc was added to the plates at 200 ng/mL and incubated for 30 min. Following this incubation, the antigen was washed from the plates using distilled water. Biotin labeled goat anti-GP73 was added to the plates at 200 ng/mL and incubated for 30 min at room temperature. The plates were washed and streptavidin-HRPO (Jackson Immunoresearch) (diluted to approximately 200 ng/mL) was added to the plates and allowed to incubate for 30 min. The plates were washed with distilled water and OPD substrate was used as the chromagen to generate signal. Plates were read at 492 nm and the results were analyzed.
# [3] = target: T1, E. coli expressed human GP73 (amino …); assay: Binds E. coli GP73 (summary table; EIA on coated E. coli GP73)
# Experimental: The purified anti-GP73 mAbs were tested for EIA reactivity to human IgG, GP73 produced in E. coli, and GP73-hFc produced in HEK 293 cells. A mouse-human chimeric antibody, GP73 produced in E. coli, and GP73-hFc produced in HEK 293 cells were coated on micro titer plates at approximately 1000 ng/mL and allowed to incubate over night at 4-8° C. After the capture reagent was coated on the solid phase, it was removed and blocked using a BSA/PBS block solution. The wells were washed with distilled water. Purified anti-GP73 and negative control mAbs were added to the blocked plates in serial dilutions starting at 1000 ng/mL and allowed to incubate at room temperature for approximately 30 min. The wells were washed with distilled water. Goat anti-mouse IgG-HRP (Jackson Immunoresearch) was added to the wells at approximately 250 ng/mL and allowed to incubate for approximately 30 min at room temperature. The plates were washed with distilled water and OPD substrate was used as the chromagen to generate signal. Plates were read at 492 nm and the results were analyzed.
binding result [1],OD (A492) [2],binding result [3],Binder
binds,1.44 OD (A492),,"anti-GP73 monoclonal antibody 1B-4863 (antibody, V domains shown, Biotin labelled in some assays; also called mAb 1B-4863; 1B-4863-Bt) VH: QVQLKESGPGLVAPSQSLSITCTVSGFSLTSYGVHWVRQSPGKGLEWLGVIWTGGSTNYNSALMSRLSISKDNSESQVFLKVNSLQTDDTGMYYCARDPGTDYFDYWGQGTTLTVSS VL: DIVMTQSHKFMSTSIGDRVSISCKASQDVSIDVSWYQQKPGQSPTLLIYSASYRYIGVPDRFTGSGSGTAFTFTISSVQAEDLAIYYCQQHFTTPLTFGAGTKLELKR"
,1.46 OD (A492),binds,"anti-GP73 monoclonal antibody 1B-3440 (antibody, V domains shown, Biotin labelled in some assays; also called mAb 1B-3440; 1B-3440-Bt) VH: EVQLVETGGGLVQPKGSLKLSCAASGFTFNTNAMNWVRQAPGKGLEWVARIRTKRYNYTTFYADSVKDRFTISRDDSQSMLFLQMNNLKTEDTAMYYCVTGGTGTFDYWGQGTTLTVSS VL: EIVLTQSPTTMPASPGEKVTFTCSASSGISSNYLHWYQLKPGFSPKLLIYRTSNLASGVPARFSGGGSGTSYSLTIGTMEAEDVATYYCQQGFSIPLTFGAGTKLELKR"
,1.79 OD (A492),binds,"anti-GP73 monoclonal antibody 1B-4971 (antibody, V domains shown, Biotin labelled in some assays; also called mAb 1B-4971; 1B-4971-Bt) VH: QVQLQQSGPALVKPGASVKMSCKASGYTFTNYVIHWVKQKPGQGLERIGYIWPYNDGTKFNEKFKGKATLTSDKSSSTAYMELSSLTSEDSAVYYCSSQQLAYWGQGTTLTVSS VL: not shown"
